Data from publication PMC5643242 (The FEBS journal, 2017).
Where two headings read alike, the source gives them in different places.

Columns and labels:
Experiment in all cases: stopped-flow fluorescence
[1] = target: T1, Cdc42 GTPase (residues 1-179), loaded with mantGppNHp (human, UniProt P60953 1-179)
[2] = target: T1, Cdc42 GTPase (residues 1-179), loaded …; remark: listed apart in the source
[3] = target: T1, Cdc42 GTPase (residues 1-179), loaded …; remark: listed apart in the source
[4] = target: T1, Cdc42 GTPase (residues 1-179), loaded …; remark: listed apart in the source
[5] = target: T1, Cdc42 GTPase (residues 1-179), loaded …; remark: listed apart in the source

T1 sequence (P60953 1-179): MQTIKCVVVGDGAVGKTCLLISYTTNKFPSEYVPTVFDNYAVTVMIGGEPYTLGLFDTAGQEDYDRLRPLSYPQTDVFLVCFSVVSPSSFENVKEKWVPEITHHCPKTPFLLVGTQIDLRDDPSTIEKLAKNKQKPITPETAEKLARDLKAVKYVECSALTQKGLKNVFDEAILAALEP

B1: Wiskott-Aldrich Syndrome protein (WASP) GTPase binding domain (GBD) construct, residues 154-322 (domain or fragment, human, UniProt P42768 154-322, looked up)
chain: GDRRQLPPPPTPANEERRGGLPPLPLHPGGDQGGPPVGPLSLGLATVDIQNPDITSSRYRGLPAPGPSPADKKRSGKKKISKADIGAPSGFKHVSHVGWDPQNGFDVNNLDPDLRSLFSRAGISEAQLTDAETSKLIYDFIEDQGGLEAVRQEMRRQEPLPPPPPPSRG
kon [1]: 1.63e+07 M⁻¹ s⁻¹ | fold decrease of ka at 2 M urea against no urea [2]: 3.4 fold | kon [3]: 1.75e+07 M⁻¹ s⁻¹ | kon [4]: 2.07e+07 M⁻¹ s⁻¹ | koff [5]: 4.1 ± 1.7 s⁻¹ | kon [5]: 1.2e+07 M⁻¹ s⁻¹
